# Measurements reported in IntAct's records for PubMed 22495310.
# B1: CREB-regulated transcription coactivator 2 (Mus musculus), Q3U182 (parent)
# chain: MATSGANGPGSATASASNPRKFSEKIALQKQRQAEETAAFEEVMMDIGSTRLQAQKLRLAYTRSSHYGGSLPNVNQIGCGLAEFQSPLHSPLDSSRSTRHHGLVERVQRDARRMVSPLRRYPRHIDSSPYSPAYLSPPPESGWRRMMPWGNLPAEKGQLFRLPSALNRTSSDSALHTSVMNPNPQDTYPGPTPPSVLPSRRGGGFLDGEMDAKVPAIEENVVDDKHLLKPWDAKKLSSSSSRPRSCEVPGINIFPSPDQPANVPVLPPAMNTGGSLPDLTNLHFPPPLPTPLDPEETVYPSLSGGNSTTNLTHTMTHLGISGGLGLGPSYDVPGLHSPLSHPSLQSSLSNPNLQASLSSPQPQLQGSHSHPSLPASSLAHHALPTTSLGHPSLSAPALSSSSSSSSTSSPVLSAPPYPASTPGASPRHRRVPLSPLSLPAGPADARRSQQQLPKQFSPTMSPTLSSITQGVPLDTSKLPTDQRLPPYPYSPPSLVIPTHPPTPKSLQQLPSQACLVQPSGGQPPGRQPHYGALYPPGSSGHGQQPYHRPINDFSLGNLEQFNMESPSTSLVLDPPAFSEGPGFLGSEGSMSGPQDPHVLNHQNLTHCSRHGSGPNIILTGDSSPGFSKEIAAALAGVPGFEVSASGLELGLGLEDELRMEPLGLEGLTMLSDPCALLPDPAVEDSFRSDRLQ
# Variants of: B1
# Conditions: with pp2ba_mouse Ppp3ca
row,effect of a mutation on the interaction,Variant
1,decreasing interaction strength,P614G;I616A;L618A;T619A
